In article PMC9663308, “AAA+ protease-adaptor structures reveal altered conformations and ring specialization” (Nature Structural & Molecular Biology, 2022):
Ends that are not written are not given here.

B1: ClpA (laboratory 'wild-type' ClpA carrying M169T), hexamer (enzyme, E. coli, UniProt P0ABH9 1-758, looked up)
chain: MLNQELELSLNMAFARAREHRHEFMTVEHLLLALLSNPSAREALEACSVDLVALRQELEAFIEQTTPVLPASEEERDTQPTLSFQRVLQRAVFHVQSSGRNEVTGANVLVAIFSEQESQAAYLLRKHEVSRLDVVNFISHGTRKDEPTQSSDPGSQPNSEEQAGGEERTENFTTNLNQLARVGGIDPLIGREKELERAIQVLCRRRKNNPLLVGESGVGKTAIAEGLAWRIVQGDVPEVMADCTIYSLDIGSLLAGTKYRGDFEKRFKALLKQLEQDTNSILFIDEIHTIIGAGAASGGQVDAANLIKPLLSSGKIRVIGSTTYQEFSNIFEKDRALARRFQKIDITEPSIEETVQIINGLKPKYEAHHDVRYTAKAVRAAVELAVKYINDRHLPDKAIDVIDEAGARARLMPVSKRKKTVNVADIESVVARIARIPEKSVSQSDRDTLKNLGDRLKMLVFGQDKAIEALTEAIKMARAGLGHEHKPVGSFLFAGPTGVGKTEVTVQLSKALGIELLRFDMSEYMERHTVSRLIGAPPGYVGFDQGGLLTDAVIKHPHAVLLLDEIEKAHPDVFNILLQVMDNGTLTDNNGRKADFRNVVLVMTTNAGVRETERKSIGLIHQDNSTDAMEEIKKIFTPEFRNRLDNIIWFDHLSTDVIHQVVDKFIVELQVQLDQKGVSLEVSQEARNWLAEKGYDRAMGARPMARVIQDNLKKPLANELLFGSLVDGGQVTVALDKEKNELTYGFQSAQKHKAEAAH
notes: ClpA, E. coli, AAA+ unfoldase with D1 and D2 modules; full-length with the M169T substitution that helps overexpression; also called ClpA6; WTClpA
B2: ClpP-His6, 14-mer (enzyme)
chain: not shown
notes: ClpP peptidase, E. coli; The atomic models hold one heptameric ClpP ring; also called ClpP14; ClpP7 ring; copies: 14
B3: ClpS adaptor (natural protein, E. coli)
chain: MGKTNDWLDFDQLAEEKVRDALKPPSMYKVILVNDDYTPMEFVIDVLQKFFSYDVERATQLMLAVHYQGKAICGVFTAEVAETKVAMVNKYARENEHPLLCTLEKA
notes: ClpS, E. coli, ~10 kDa; N-terminal extension (NTE) res; 2–26 and core domain res; 27–106; The NTE (res. 2–26) and the core (res. 27–106) are both spoken of, so the whole protein is likely; also called native ClpS; source: E. coli BL21(DE3), purified as described for His6-SUMO-fusion proteins

Assays:
ClpS adaptor = molecular target: B3; assay: fluorescence polarisation; fluorescence anisotropy at equilibrium; ClpS alone (1.25–30 µM) titrated against 100 nM …-fluorescein; 30 °C, HO buffer, 2 mM ATPγS; conditions: both partners purified
ClpP-His6, 14-mer = molecular target: B2; assay: cryo-EM structure; ClpA6 (4 µM), ClpP14 (8 µM), ClpS (13 µM) and YLFVQELA-GFP (13 µM) mixed in assembly buffer (50 mM HEPES-KOH pH 7.5, 300 mM KCl, 5 mM MgCl2, 2 mM TCEP, 4% glycerol, 2 mM ATPγS), 5 min at 25 °C; largest complex from Superdex-200 taken for single-particle cryo-EM; conditions: both partners purified
[1] = molecular target: the molecule itself; assay: as above
[2] = molecular target: B1; assay: as above; conditions: both partners purified

| Binder | binding result (ClpS adaptor) | stoichiometry N (ClpP-His6, 14-mer) | stoichiometry N [1] | binding result [2] |
| --- | --- | --- | --- | --- |
| LLYVQRDSKEC-fluorescein (not fully specified (residue 11); printed as LLYVQRDSKEC-fluorescein, synthetic N-degron peptide, molecular weight 1779.9 g/mol; also called fluorescein-labeled N-degron peptide; N-degron peptide; source: synthetic peptide (21st Century Biochemicals)) [LLYVQRDSKEC-fluorescein N-degron synthetic peptide] | binds |  |  |  |
| B1 |  | 2 ClpA hexamers per ClpP 14-mer | 6 |  |
| B2 |  |  | 14 | binds |
| B3 |  |  |  | binds |
